Reference: patent US20120276104A1 (F STAR BIOTECHNOLOGISCHE FORSCHUNGS UND ENTWICKLUNGSGES M B …, published 2012)

Key:
[1] = target: T1, recombinant soluble HER-2 protein (human, UniProt P04626 23-652, limits assumed); assay: SPR (Biacore), soluble HER-2 coated on CM-5 chip, Fcab injected at 0.8-25 ug/ml, 1:1 model; SPR, recombinant soluble HER-2 on the chip
T1 construct: Described only as 'recombinant soluble HER-2 protein'; also called recombinant HER-2
Protocol: (§1) CM-5 chips are coated with increasing concentrations of recombinant soluble HER-2 protein. […] Then, buffer is injected to measure the off-rate of the binding reaction. The binding affinity (KD) is calculated using the BiaEval software using a 1:1 stochiometry model. […] Unbound Fcab is removed by two washing steps in FACS buffer. Cell bound Fcab is detected by incubation of the cells with polyclonal anti-human IgG antibodies coupled to phycoerythrin (SIGMA) for 30 minutes on ice as recommended by the manufacturer. Again, unbound detection antibodies are removed by two washing steps as above. Fcab binding is enumerated by flow cytometry by plotting the mean fluorescence intensity against the Fcab concentrations (FIG. 1, left panel).

[2] = target: T2, HER-2 expressed on human tumor cells (human, UniProt P04626 23-1255); assay: flow cytometry on SKBR3 cells, detection with anti-human IgG-phycoerythrin, MFI against Fcab concentration; flow cytometry, HER-2 on SKBR3 cells
T2 construct: whole, on cells; also called Her-2/neu; HER-2 on SKBR3, BT474 and HCC1954 cells
Protocol: as §1

Kd [1]: 7.5 nM
EC50 [2]: 2 nM
B1: Fcab H561-4 (other)
chain: TCPPCPAPELLGGPSVFLFPPKPKDTLMISRTPEVTCVVVDVSHEDPEVKFNWYVDGVEVHNAKTKPREEQYNSTYRVVSVLTVLHQDWLNGKEYKCKVSNKALPAPIEKTISKAKGQPREPQVYTLPPSRDEFFTYWVSLTCLVKGFYPSDIAVEWESNGQPENNYKTTPPVLDSDGSFFLYSKLTVDRRRWTAGNVFSCSVMHEALHNHYTQKSLSLSPGK
notes: also called Her-2 specific Fcab clone H561-4
